Experimental data: publication doi:10.1101/2022.11.23.517371

Biological target: nicotinate-nucleotide pyrophosphorylase (NMnPP) (Saccharomyces cerevisiae S288c) (UniProt P43619)
Experiment: negative-stain TEM

stoichiometry N: 6
Substance: nicotinate-nucleotide pyrophosphorylase (NMnPP) (from UniProt P43619 1-295) (enzyme)
